Our source for the Kd values is paper PMC8096265, “A functional LSD1 coregulator screen reveals a novel transcriptional regulatory cascade connecting R-loop homeostasis with epigenetic regulation” (Nucleic Acids Research, 2021).

In the experiment the target is FITC-labelled H3.1 peptide (residues 16-34) trimethylated at K27 (UniProt P68431). Nature of the experiment: fluorescence polarisation; fluorescence anisotropy; 50 nM FITC-labelled H3.1 (16-34) peptide in 20 mM HEPES pH 7.5, 100 mM KCl, 0.1 mM DTT, 10% glycerol; DDX19A added stepwise; 23°C; fit to a simple binding equilibrium. In general terms: Polarisation of emitted light reports the rotation of a fluorescent probe.

B1: GST-DDX19A (recombinant full-length DEAD-box helicase 19A) (enzyme)
chain: MATDSWALAVDEQEAAVKSMTNLQIKEEKVKADTNGIIKTSTTAEKTDEEEKEDRAAQSLLNKLIRSNLVDNTNQVEVLQRDPNSPLYSVKSFEELRLKPQLLQGVYAMGFNRPSKIQENALPMMLAEPPQNLIAQSQSGTGKTAAFVLAMLSRVEPSDRYPQCLCLSPTYELALQTGKVIEQMGKFYPELKLAYAVRGNKLERGQKISEQIVIGTPGTVLDWCSKLKFIDPKKIKVFVLDEADVMIATQGHQDQSIRIQRMLPRNCQMLLFSATFEDSVWKFAQKVVPDPNVIKLKREEETLDTIKQYYVLCSSRDEKFQALCNLYGAITIAQAMIFCHTRKTASWLAAELSKEGHQVALLSGEMMVEQRAAVIERFREGKEKVLVTTNVCARGIDVEQVSVVINFDLPVDKDGNPDNETYLHRIGRTGRFGKRGLAVNMVDSKHSMNILNRIQEHFNKKIERLDTDDLDEIEKIAN
Consider B1, for which the Kd was found to be 82 nM.

For orientation: Kd means the equilibrium constant for the complex coming apart.
